# Measured values from PMC7060199, “DJ-1 suppresses ferroptosis through preserving the activity of S-adenosyl homocysteine hydrolase” (Nature Communications, 2020).
# Experiments:
# [1] = biological target: the molecule itself; experiment: cross-linking; cells incubated with 2 mM DSS for 30 min at 25 C, quenched with 1 M Tris-HCl pH 7.4; western blot; control and DJ-1 KD
# [2] = biological target: the molecule itself; experiment: not stated; HEK293T cells with DJ-1 overexpression (Supplementary Fig. 6j)
Protein,stoichiometry N [1],stoichiometry N [2]
"S-adenosyl homocysteine hydrolase (enzyme, human (endogenous in H1299), UniProt P23526 1-432, looked up, S-adenosyl homocysteine hydrolase (SAHH) of H1299 cells; also called SAHH; source: H1299 cell lysate (control KD and DJ-1 KD)) MSDKLPYKVADIGLAAWGRKALDIAENEMPGLMRMRERYSASKPLKGARIAGCLHMTVETAVLIETLVTLGAEVQWSSCNIFSTQDHAAAAIAKAGIPVYAWKGETDEEYLWCIEQTLYFKDGPLNMILDDGGDLTNLIHTKYPQLLPGIRGISEETTTGVHNLYKMMANGILKVPAINVNDSVTKSKFDNLYGCRESLIDGIKRATDVMIAGKVAVVAGYGDVGKGCAQALRGFGARVIITEIDPINALQAAMEGYEVTTMDEACQEGNIFVTTTGCIDIILGRHFEQMKDDAIVCNIGHFDVEIDVKWLNENAVEKVNIKPQVDRYRLKNGRRIILLAEGRLVNLGCAMGHPSFVMSNSFTNQVMAQIELWTHPDKYPVGVHFLPKKLDEAVAEAHLGKLNVKLTKLTEKQAQYLGMSCDGPFKPDHYRY",4,–
"SAHH in HEK293T cells (enzyme, UniProt P23526 1-432, looked up, S-adenosyl homocysteine hydrolase (SAHH) in HEK293T cells with DJ-1 overexpression; source: HEK293T cells) MSDKLPYKVADIGLAAWGRKALDIAENEMPGLMRMRERYSASKPLKGARIAGCLHMTVETAVLIETLVTLGAEVQWSSCNIFSTQDHAAAAIAKAGIPVYAWKGETDEEYLWCIEQTLYFKDGPLNMILDDGGDLTNLIHTKYPQLLPGIRGISEETTTGVHNLYKMMANGILKVPAINVNDSVTKSKFDNLYGCRESLIDGIKRATDVMIAGKVAVVAGYGDVGKGCAQALRGFGARVIITEIDPINALQAAMEGYEVTTMDEACQEGNIFVTTTGCIDIILGRHFEQMKDDAIVCNIGHFDVEIDVKWLNENAVEKVNIKPQVDRYRLKNGRRIILLAEGRLVNLGCAMGHPSFVMSNSFTNQVMAQIELWTHPDKYPVGVHFLPKKLDEAVAEAHLGKLNVKLTKLTEKQAQYLGMSCDGPFKPDHYRY",–,4
